T1: TGFβ2 (human, UniProt P61812 303-414)
T1 sequence (looked up): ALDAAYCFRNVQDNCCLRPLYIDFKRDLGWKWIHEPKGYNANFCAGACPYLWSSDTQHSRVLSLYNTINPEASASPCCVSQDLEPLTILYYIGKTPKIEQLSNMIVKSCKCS

T2: TGFβ3 (human, UniProt P10600 301-412)
T2 construct: Commercial recombinant protein; also called transforming growth factor beta 3
T2 sequence (looked up): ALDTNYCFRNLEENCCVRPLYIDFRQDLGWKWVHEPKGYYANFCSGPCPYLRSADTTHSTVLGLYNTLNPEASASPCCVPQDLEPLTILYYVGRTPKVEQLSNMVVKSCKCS

B1: XPA.42.089 (antibody, IgG2, V domains shown)
VH: QVQLVQSGAEVKKPGSSVKVSCKASGGTFSSYAISWVRQAPGQGLEWMGGIIPIFGTANYAQKFQGRVTITADESTSTAYMELSSLRSEDTAVYYCARGLWEVRALPSVYWGQGTLVTVSS
VL: SYELTQPPSVSVAPGQTARITCGANDIGSKSVHWYQQKAGQAPVLVVSEDIIRPSGIPERISGSNSGNTATLTISRVEAGDEADYYCQVWDRDSDQYVFGTGTKVTVLG
B2: XPA.42.681 (antibody, IgG2, V domains shown)
VH: not shown
VL: SYVLTQPPSVSVAPGKTARITCGGNNIGFRSVHWYQQKSGQAPVLVIYFDRARPSGIPERFSASNSENTATLTIRRVEAGDEADYYCQVWDSDSDDLVFGGGTQLTVLG
B3: XPA.42.068 (antibody, V domains shown)
VH: not shown
VL: SSELTQPPSVSVAPGEKARITCGGNNIGRKSVHWYQQRPGQAPVVVLYYDRVRPSGIPERFSGSNSGNTATLTITRVEAGDEADYFCQVWDNTSEHVVFGGGTQLTVLG
B4: TGFβ-RI (recombinant form) (receptor, UniProt P36897 34-126, looked up)
chain: LQCFCHLCTKDNFTCVTDGLCFVSVTETTDKVIHNSMCIAEIDLIPRDRPFVCAPSSKTGSVTTTYCCNQDHCNKIELPTTVKSSPGLGPVEL
notes: also called TGFβ receptor type 1 protein; TGFβ-R1

Experiments:
[1] = target: T3, TGFβ1 (human, UniProt P01137 279-390); assay: cell-based or functional assay
[2] = target: T1, TGFβ2; assay: cell-based or functional assay
[3] = target: T3, TGFβ1; assay: SPR (Biacore 2000), antibody immobilised on CM4 chip, TGFβ injected
Protocol: (§1) A CM4 sensor chip (GE Healthcare) was used on a BIACORE 2000 system (GE Healthcare). The chip was preconditioned with two 30 second injections each at 50 μL/minute flow rate of 100 mM HCl, Glycine pH 2.0, 50 mM NaOH, and running buffer prior to immobilization. Running buffer for immobilization was a HEPES Buffered Saline (HBS-EP+) with 10 mM Hepes, 150 mM Sodium Chloride, 3 mM EDTA, and 0.05% Polysorbate 20 (Teknova). The chip surface was activated with a seven minute injection at 10 μL/minute of a freshly mixed 1:1 solution of 0.1 M N-Hydroxysuccinimide (NHS) and 0.4 M 1-Ethyl-3-(3-dimethylaminopropyl) carbodiimide hydrochloride (EDC). Following the activation injection, 1 ug/mL anti-TGFβ antibody in acetate pH 4.5 was injected at 10 μL/minute for one minute, with injections targeting 120 RU. 8 minutes of 1M Ethanolamine hydrochloride-NaOH pH 8.5 was injected to block the surface. The NHS, EDC, and Ethanolamine used were from the BIACORE Amine Coupling Kit.
(§2) Kinetic Analysis was performed using a running buffer of thoroughly degassed form of the HBS-EP+ buffer above supplemented with 1 mg/mL BSA (Sigma Aldrich, St. Louis Mo.). TGFβ sample injections were performed at 50 μL/minute for four minutes with a 900 second dissociation time. […] Regeneration was then performed with three injections of 30 seconds each of 100 mM HCl in 3 M MgCl₂ followed by a final 30 second blank buffer injection.
(§3) The data were analyzed using Scrubber2 (BioLogic Software, Campbell Australia) and was double referenced by subtracting both the blank flow cell data and the averaged bracketing blank injections. […] TGFβ proteins were injected at the same concentrations as described above at 30 μL/minute.

[4] = target: T1, TGFβ2; assay: as above
Protocol: as §1, §2, §3

[5] = target: T2, TGFβ3; assay: as above
Protocol: as §1, §2, §3

[6] = target: T3, TGFβ1; assay: SPR (Biacore 2000), TGFβ immobilised on CM1 chip, antibody injected
Protocol: (§4) The chip surface was activated with four minute injections at 20 μL/minute of a freshly mixed 1:1 solution of 0.1M N-Hydroxysuccinimide (NHS) and 0.4M 1-Ethyl-3-(3-dimethylaminopropyl) carbodiimide hydrochloride (EDC). Following the activation injection a 0.1 ug/mL solution of TGFβ in acetate pH 4.0 was injected at 20 μL/minute for several minutes. […] Injections of TGFβ were performed as a series of 1 to 2 minute injections looking at immobilized level between each injection. The target immobilized density of each TGFβ ligand was 30 RU. After the TGFβ immobilization injections, 4 minutes of 1 M Ethanolamine hydrochloride-NaOH pH 8.5 was injected to block the surface.
(§5) Each of the antibodies was diluted in running buffer to 5 μg/mL (33.3 nM) and 4 subsequent five-fold dilutions were prepared setting up concentrations of 33.33 nM, 6.67 nM, 1.33 nM, 267 pM, and 53 pM for each. These were then injected using the Kinject setting for four minutes at 50 μL/minute, with a 900 second dissociation time. Regeneration was then performed with a 12 μL (14.4 second) injection of 100 mM HCl at 50 μL/minute followed by an 18 second buffer injection. Injections were across all flow cells simultaneously and samples were run injected in quadruplicates with blank injections bracketing each set of descending concentration injection groups for each antibody. This means that before the same sample was injected a second time all other concentrations of all antibodies were injected once.
(§6) The data were analyzed using Scrubber2 (BioLogic Software, Campbell Australia) and were double referenced by subtracting both the blank flow cell data and the averaged bracketing blank injections.

[7] = target: T1, TGFβ2; assay: as above
Protocol: as §4, §5, §6

[8] = target: T2, TGFβ3; assay: as above
Protocol: as §4, §5, §6

[9] = target: T3, TGFβ1; assay: SPR: 4 nM TGFβ without competitor injected over immobilised XPA.42.089 (about 300 RU)
Protocol: (§7) A CM5 sensor chip (GE Healthcare) was used on a BIACORE 2000 system. The chip was preconditioned with four 30 second injections at 50 uL/minute flow rate of 100 mM HCl prior to immobilization. Running buffer for immobilization was a HEPES Buffered Saline (HBS-EP+) with 10 mM Hepes, 150 mM Sodium Chloride, 3 mM EDTA, and 0.05% Polysorbate 20. The chip surface was activated with a seven minute injection at 10 uL/minute of a freshly mixed 1:1 solution of 0.1 M N-Hydroxysuccinimide (NHS) and 0.4 M 1-Ethyl-3-(3-dimethylaminopropyl) carbodiimide hydrochloride (EDC). […] Injections were monitored and performed sequentially to establish immobilization levels very close to 300 RU. Eight minutes of 1 M Ethanolamine hydrochloride-NaOH pH 8.5 was injected to block the surface. The NHS, EDC, and Ethanolamine used were from the BIACORE Amine Coupling Kit. Fc1 was the activated and deactivated control.
(§8) Competition assays were performed using a running buffer of thoroughly degassed form of the HBS-EP+ buffer above supplemented with 1 mg/mL BSA. […] The TGFβ-RIIb-Fc recombinant receptor (R&D Systems) also was included as a competitor. Samples were allowed to come to equilibrium for 40 minutes at room temperature before the BIACORE run was started. Equilibrated samples were then injected at 30 uL/minute for three minutes over all of the flow cells. Regeneration was performed every cycle with one injection of 50 mM NaOH at 50 uL/minute for 6 seconds (5 μLs) and followed by a thirty second buffer injection. Samples were run in duplicates and analyzed for level of TGFβ bound at the end of the three minutes.

[10] = target: T1, TGFβ2; assay: as above
Protocol: as §7, §8

[11] = target: T2, TGFβ3; assay: as above
Protocol: as §7, §8

[12] = target: T3, TGFβ1; assay: SPR competition: 4 nM TGFβ pre-mixed with 133 nM of the row's molecule, injected over immobilised XPA.42.089 (self competition)
Protocol: as §7, §8

[13] = target: T1, TGFβ2; assay: as above
Protocol: as §7, §8

[14] = target: T2, TGFβ3; assay: as above
Protocol: as §7, §8

[15] = target: T2, TGFβ3; assay: cell-based or functional assay
[16] = target: T3, TGFβ1; assay: SPR competition: 4 nM TGFβ pre-mixed with 133 nM of the row's molecule, injected over immobilised XPA.42.089 (competitor)
Protocol: as §7, §8

[17] = target: T1, TGFβ2; assay: as above
Protocol: as §7, §8

[18] = target: T2, TGFβ3; assay: as above
Protocol: as §7, §8

[19] = target: T3, TGFβ1; assay: SPR
[20] = target: T1, TGFβ2; assay: SPR
[21] = target: T2, TGFβ3; assay: SPR

IL-11 Release Assay - IC50 (A549 cells) [1] [µg/mL] | IL-11 Release Assay - IC50 (A549 cells) [2] [µg/mL] | Kd [3] [nM] | koff [3] [s⁻¹] | kon [3] [M⁻¹ s⁻¹] | Kd [4] [nM] | koff [4] [s⁻¹] | kon [4] [M⁻¹ s⁻¹] | Kd [5] [nM] | koff [5] [s⁻¹] | kon [5] [M⁻¹ s⁻¹] | Kd [6] [nM] | koff [6] [s⁻¹] | kon [6] [M⁻¹ s⁻¹] | Kd [7] [nM] | koff [7] [s⁻¹] | kon [7] [M⁻¹ s⁻¹] | Kd [8] [nM] | koff [8] [s⁻¹] | kon [8] [M⁻¹ s⁻¹] | also measured | Binder
0.037 | 0.058 | 0.0038 | 0.000167 | 4.4e+07 | 0.025 | 0.000414 | 1.62e+07 | 1.4 | 0.0109 | 7.7e+06 | 0.177 | 0.00106 | 5.98e+06 | 0.29 | 0.00139 | 4.8e+06 | > 17 | 0.057 | 3.4e+06 | average RU of TGFβ binding [9]: 63.9 RU; average RU of TGFβ binding [10]: 61 RU; average RU of TGFβ binding [11]: 23.6 RU; average RU of TGFβ binding [12]: 1.7 RU; average RU of TGFβ binding [13]: 0.363 RU; average RU of TGFβ binding [14]: 9.77 RU | B1
0.0004 | 0.001 | 0.0017 | 7.2e-05 | 4.25e+07 | 0.0029 | 4.99e-05 | 1.71e+07 | 0.0057 | 7.5e-05 | 1.3e+07 | 0.032 | 0.000363 | 1.14e+07 | 0.031 | 0.000394 | 1.28e+07 | 0.054 | 0.000665 | 1.23e+07 | IL-11 Release Assay - IC50 (A549 cells) [15]: 0.0008 µg/mL | B2
0.221 | 0.111 | 0.059 | 0.000905 | 1.53e+07 | 0.051 | 0.000535 | 1.04e+07 | 0.455 | 0.00384 | 8.45e+06 | 0.313 | 0.0017 | 5.44e+06 | 0.109 | 0.000798 | 7.3e+06 | 1.3 | 0.00696 | 5.45e+06 | IL-11 Release Assay - IC50 (A549 cells) [15]: 1.79 µg/mL; average RU of TGFβ binding [16]: 10.8 RU; average RU of TGFβ binding [17]: 5.18 RU; average RU of TGFβ binding [18]: 7.32 RU | B3
– | – | – | – | – | – | – | – | – | – | – | – | – | – | – | – | – | – | – | – | binding result [19]: no binding; binding result [20]: no binding; binding result [21]: no binding | B4

Source: patent publication US20210355204A1 (XOMA TECHNOLOGY, published 2021)
